How the values were obtained:
[1] = target: biotin-CCR4 peptide conjugate (human); experiment: ECL (MSD) bridging assay, biotin-CCR4 peptide on a streptavidin plate, His-CD16a detection; 5% pooled human serum
[2] = target: biotin-CCR4 peptide conjugate (human); experiment: ECL (MSD) bridging assay, biotin-CCR4 peptide on a streptavidin plate, His-CD16a detection; 20% pooled human serum
[3] = target: biotin-CCR4 peptide conjugate (human); experiment: ECL (MSD) bridging assay, biotin-CCR4 peptide on a streptavidin plate, His-CD16a detection; 0% PHS (assay buffer)

Measured: EC50 (read off the curve)

Chain of biotin-CCR4 peptide conjugate (human) (peptide, as listed by the source): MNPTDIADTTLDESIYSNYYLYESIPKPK

KW-0761 (antibody)
0.4 µg/mL: all assays above
